Assay results: patent publication US20180044415A1 (AbbVie / Abbott, published 2018)

T1: human DLL3 (immobilized human DLL3 or h293-hDLL3 cells) (human, UniProt Q9NYJ7 27-492, limits assumed)
T1 construct: the sentence says 'immobilized human DLL3 or h293-hDLL3 cells'
T1 sequence: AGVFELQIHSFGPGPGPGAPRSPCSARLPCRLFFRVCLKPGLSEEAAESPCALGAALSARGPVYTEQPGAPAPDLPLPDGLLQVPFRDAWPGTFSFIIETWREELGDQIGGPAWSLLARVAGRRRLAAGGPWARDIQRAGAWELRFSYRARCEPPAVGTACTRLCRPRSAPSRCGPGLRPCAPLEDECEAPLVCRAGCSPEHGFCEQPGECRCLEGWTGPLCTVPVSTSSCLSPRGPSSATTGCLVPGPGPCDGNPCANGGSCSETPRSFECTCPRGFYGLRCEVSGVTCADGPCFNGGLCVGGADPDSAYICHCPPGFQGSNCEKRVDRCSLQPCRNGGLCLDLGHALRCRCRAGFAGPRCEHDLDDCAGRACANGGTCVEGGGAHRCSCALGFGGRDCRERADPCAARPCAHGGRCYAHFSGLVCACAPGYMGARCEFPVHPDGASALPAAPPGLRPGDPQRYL


The binders below were run against T1, human DLL3 (immobilized human DLL3 or …) (assay: hybridoma screening on immobilized human DLL3 or on h293-hDLL3 cells).

Binder | binding result
SC16.8 (antibody, V domains shown, murine mAb; variable regions only) VH: QAQLQQSGAELVRPGTSVKVSCKASGYAFTNYLIEWVKQRPGQGLEWIGVINPGTGGTNYNENFKGKATLTADKSSSTAYMQLSSLTSDDSAVYFCARSPYDYHEGAMDYWGQGTSVTVSS VL: EIQMTQSPSSMSASLGDRITITCQATQDIVKNLNWYQQKPGKPPSFLIYYAIELAEGVPSRFSGSGSGSDYSLTISNLESEDFADYYCLQFYEFPFTFGAGTKLELK | binds
SC16.20 (antibody, V domains shown, murine mAb; variable regions only) VH: QVQLQQSGTELVRPGTSVRVSCKASGYAFGNHLIEWVKQRPGQGLEWIGVINPGTGGTHYNEKFKDKARLTADKSSNTAYMHLNSLTSDDSAVYFCARSPYDYHEGAMDYWGQGTSVTVSS VL: EIQMTQSPSSMSASLGDRITITCQATQDIVKNLNWYQQKPGKPPSFLIYYATELAEGVPSRFSGSGSGSDYSLTIRNLESEDFADHYCLQFYEFPFTFGAGTKLELK | binds
SC16.18 (antibody, V domains shown, murine mAb; variable regions only) VH: EVKLEESGGGLVQPGESMKLSCAASGFTFSDAWMDWVRQSPEKGLEWVAEIRNKANNHATYYAESVKGKFTISRDDSKSRVYLQMNNLRAADTGIYYCTAYSNFAYWGQGTLVTVST VL: DIQMTQTTSSLSASLGDRVTISCRASQNIINYLNWYQQKPDGTVKLLIYYTSRLHSGVPSRFSGSGSGTDYSLTISNLEPEDIATYYCQQYSERPYTFGGGTKLEIK | binds
SC16.41 (antibody, V domains shown, murine mAb; variable regions only) VH: EVKLEESGGGLVQFGGSMKLSCAASGFTFSDAWMDWVRQSPEKGLEWVAEIRNKANNHATYYPESVKGRFTISRDDSKSRVYLQMNNLRAEDTGIYYCTGYSSFAYWGQGTLVTVSA VL: DIQMTQTTSSLSASLGDRVTISCRASQDVINYLNWYQQKPDGTVKLLIYYTSRLHSGVPSRFSGSGSRTDYSLTISNLEPEDIATYYCQQYSERPYTFGGGTKLEIK | binds
SC16.148 (antibody, V domains shown, murine mAb; variable regions only) VH: QIQLVQSGPELKKPGETVKISCKASGYTLTNYGMNWVKQAPGKGLKWMGWINTYTGEPTYADDFKGRFAFSLETSARIVYLQINNLKNEDTATYFCAKYEAHEGFVYWGQGTLVTVSA VL: QIVLTQSPAIMSASPGEKVTMTCSASSSVSYMYWYQQKPGSSPRLLIYDTSNLASGVPVRFSGSGSGTSYSLTISRMEAEDTATYYCQEWSNNPLTFGDGTKLELK | binds
SC16.19 (antibody, V domains shown, murine mAb; variable regions only) VH: EVQLQQSGAELVRPGASVKLSCTASGFNIKDSLLHWVKQRPEKGLEWIGWIDPEDGETKYAPNFQDKATITTDSSSNTAYLQLISLTSVDTAIYYCAYGNYVRHFDYWGQGTTLTVSS VL: DIQMTQSPSSLSASLGGKVTFTCKASQDIHKYVAWYQHKPGKGPRLLIHYTSTLQPGISSRFSGSGSGRDYSFSISNLEPEDIATYYCLQYNNLYTFGGGTKLEIK | binds
SC16.5 (antibody, V domains shown, murine mAb; variable regions only) VH: QVTLKESGPGILQPSQTLSLTCSFSGFSLSTSGMGVGWIRQPSGEGLEWLADIWWDDNKYYNPSLKSRLTISKDTSSNQVFLKITSVDTADTATYYCARRVNYVYDPYYAMDYWGQGTSVTVSS VL: QIVLTQSPAIMSASPGEKVTMTCSASSSVSYMHWYQQKSGTSPKRWIYDTSKLASGVPARFSGSGSGTSYSLTISSMEAEDAATYYCQQWTRNPLTFGAGTKLELK | binds
SC16.25 (antibody, V domains shown, murine mAb; variable regions only) VH: QVTLKESGPGILQPSQTLSLTCSFSGFSLSTSGMGVGWIRQPSGEGLEWLTDIWWDDNKYYNPSLKSRLTISKDTSSNQVFLNITSVDTADTATYYCARRVNYYYDPYYAMDYWGQGTSVTVSS VL: QIVLTQSPAIMSASPGEKVTMTCSASSSVSYMHWYQQKSGTSPKRWIYDSSKLASGVPARFSGSGSGTSYSLTISSMEAEDAATYYCQQWSSNPLTFGAGTKLELK | binds
SC16.126 (antibody, V domains shown, murine mAb; variable regions only) VH: QVQMKESGPGLVAPSQSLSITCTVSGSSLTNYGVHWVRQPPGKGLEWLGVIWAGGSTNYNSALMSRLSISKDNSKSQVFLKMNSLQTDDTAMYYCARDWEGWFAYWGQGTLVTVSA VL: DIQMNQSPSSLSASLGDTITITCHASQNINVWLSWYQQKPGNIPKLLIYKASNLHTGVPSRFSGSGSGTGFTLTISSLQPEDIATYYCQQGQSYPFTFGSGTKLEIK | binds

Results, then the binder that gave them:

binding result | Binder
binds | SC16.144 (antibody, V domains shown, murine mAb; variable regions only) VH: QIQLVQSGPELKKPGETVKISCKASGYTFTNYGMNWVKQAPGKGLKWVGWINTYTGEPTYADDFKGRFAFSLETSASTAYLQIDNLKNEDTATYFCARVGDYVGFDYWGQGTTLTVSS VL: SIVMTQTPKFLLVSAGDRVTITCKASQSVSNDVGWYQQKPGQSPKLLIYYASNRYNGVPDRFTGSGYGTDFTFTISTVQAEDLAVYFCQQDYSSPWTFGGGTKLEIK
binds | SC16.149 (antibody, V domains shown, murine mAb; variable regions only) VH: QVQLKESGPGLVAPSQSLSITCAVSGFSLTSFGVHWVRQPPGKGLEWLGVIWAGGSTNYYSALMSRLSISIDNSKSQVFLKMNSLQTDDTAMYYCARDWEGWFAYWGQGTLVTVSA VL: DIQMNQSPSSLSASLGDTITITCHASQNINVWLSWYQQKPGNIPKLLIYKASHLHTGVPSRLSGSGSGTGFTLTISSLQPEDIATYYCQQGQSYPFTFGSGTTLEIK
binds | SC16.3 (antibody, V domains shown, murine mAb; variable regions only) VH: QVTLKESGPGILQPSQTLSLTCSFSGFSLSTSGMGVGWIRQPSGKGLEWLAHIWWDDVKRYNPALKSRLTISKDTSSSQVFLKIASVDTADTATYYCARIADYGGDYYAMDYWGQGTSVTVSS VL: QIVLTQSPAIMSVSLGERVTMTCTASSSVSSSYLHWYQQKPGSSPKLWIYSTSNLASGVPARFSGSGSGTSYFFTISSMEAEDAATYYCHQYHRSPFTFGAGTKLKIR
binds | SC16.10 (antibody, V domains shown, murine mAb; variable regions only) VH: QVTLKESGPGILQSSQTLSLTCSFSGFSLSTSGMGVGWIRQPSGKGLEWLAHIWWDDVKRYNPVLKSRLTISKDTSSSQVFLKIASVDTADTATYYCARLVDDLYYFDYWGQGTTLTVSS VL: QIVLTQSPAIMSASLGERVTMTCTASSSVSSSYLHWYQQKPGSSPKLWIYSTSNLASGVPTRFSGSGSGTSYSLTISSMEAEDAATYYCHQYHRSPFTFGSGTKLEIK
binds | SC16.147 (antibody, V domains shown, murine mAb; variable regions only) VH: QIQLVQSGPELTKPGETVKISCKASGYTFTDYSLHWVKQALGKGLKWMGWINTETGEPAYADDFKGRFAFSLETSASTAYLQINDLKNEDTTTYFCGIYDGYAMDYWGQGTSVTVSS VL: DIQMTQTASSLSASLGDRVTISCRASQDINNYLNWYQQKPDGTVKLLIYYTSRLHSGVPSRFSGSGSGTDYSLTISILEQEDIATYFCQQGDTLPWTFGGGTKLEIK
binds | SC16.4 (antibody, V domains shown, murine mAb; variable regions only) VH: QIQLVQSGPELKKPGETVKISCKASGYTFTDYSMHWVKQAPGKGLKWMGWINTETGEPGYADDFKGRFAFSLETSASTAYLQINNLKNEDTATYFCARYDGYAMDYWGQGTSVTVSS VL: DIQMTQTTSSLSASLGDRVTISCRASQDISNYLNWYQQKPDGTVKLLIYYTSRLHSGVPSRFSGSGSGTDYSLTISNLELEDIATYFCQQGDMLPWTFGGGTKLEIK
binds | SC16.143 (antibody, V domains shown, murine mAb; variable regions only) VH: QVQLQQSGPELVKPGASVRISCKASGYTFTSYYIHWVKQRPGQGLEWIGWIYPGNGNTKYNEKFKGKATLTADKSSSTAYMQISSLTSEDSAVYFCARERWLLLWFAYWGQGTLVTVSA VL: DVLMTQTPLSLPVSLGDQASISCRSSQSIVHSNGNTYLEWYLQKPGQSPKLLIYKVSNRFSGVPDRFSGSGSGTDFTLKISRVEAEDLGVYYCFQGSHVPLTFGAGTKLELK
binds | SC16.7 (antibody, V domains shown, murine mAb; variable regions only) VH: EVQLQQSGPELVKPGASVKISCKASGYSFTGYKMHWVKQSHVKSLEWIGRINPYNGATSYNQNFKDKATLTVDKSSSTAYMDLHSLTSEDSAVYFCARGDYRYDWFAYWGQGTLVTVSA VL: NIMMTQSPSSLAVSAGEKVTMSCKSSQSVLYSSNQKNYLAWYQQKPGQSPKLLIYWASTRESGVPDRFTGSGSGTDFTLTISTVQVEDLAVYYCHQYLSSWTFGGGTKLEIK
binds | SC16.11 (antibody, V domains shown, murine mAb; variable regions only) VH: QIQLVQSGPELKKPGETVKISCKASGYTFTDYSMHWVKQAPGKGLKWMGWINTETVEPTYADDFMGRFAFSLETSASTAFLQINNLENEDTATYFCARFGSYAMDYWGQGTSVTVSS VL: not shown
binds | SC16.21 (antibody, V domains shown, murine mAb; variable regions only) VH: QVQLQQSGPELVKPGASVKISCKASGYAFSSSWMNWVKQRPGKGLEWIGRIYPGDGDTNYNGKFKGKATLTADKSSSTAYMQLSSLTSEDSAVYFCAMGIYNYDGSRYYSMDYWGQGTSVTVSS VL: DIVMTQSPSSLAMSVGQKVTMSCKSSQSLLNSSNQKNYLAWYQQEPGQSPKLLVSFASTRESGVPDRFTGSGSGTDFTLTISGVQAEDLAVYYCQQHYSIPLTFGAGTKLELK
binds | SC16.15 (antibody, V domains shown, murine mAb; variable regions only) VH: QVQLQQSGAELAKPGASVKMSCKASGYTFTRYWIHWIKQRPGQGLEWIGYINPTTVYTEFNQNFKDKATLTADKSSTTASMQLSSLTSEDSAVYYCARGGSNFFDYWGQGTTLTVSS VL: DIQMTQSPASLAASVGETVAITCRASENIYYNLAWYQQKQGKSPQLLIYTANSLEDGVPSRFSGSGSGTQYSLKINSMQPEDSATYFCKQAYDVPPTFGGGTKLEIK
